# Molecular target: CoV2_5P prefusion-stabilized spike protein (SARS-CoV-2) (UniProt P0DTC2)
# Assay: ELISA
substance,measurement,value
CR3022 (antibody),EC50 (read off the curve),0.02 µg/mL
